Tests used:
[1] = target: Imp9•XFD488-H2A-H2B complex (human | frog) (UniProt Q96P70); assay: fluorescence polarisation
[2] = target: Kap114•XFD488-H2A-H2B complex (yeast | frog) (UniProt P53067); assay: fluorescence polarisation

Kd [1]: 150 nM
Kd [2]: 270 nM
Substance: yeast RanGTP (Saccharomyces cerevisiae Gsp1 residues 1-179 with Q71L) (from UniProt P32835 1-179) (domain or fragment)

Reference: paper PMC9901172
